Protein production data for 16 sequences are collected here from a protein production outcome set (Wang et al. 2014).

This data set is described as follows: label from the status in PepcDB records.
In the case of “MSLIPKVSVIVPIYNVEKYLDQCVQALLAQTLSDIEIILIDDESPDNCPKICDDYAAQYPNIKVIHKKNAGLGMACNSGLDVATGEYVAFCDSDDYVDSDMYMTMYNVAQKYTCDAVFTGLKRITMAGIPTGTVTHQKEFKLYKNKNEIHTLLKDLIASDPYAREERAIQVSAKVVLYRRNLIEKKHLRFVSERILPSEDLIFNVDVLANSNIVCVLPQTFYNYRTNPISISEGHHHHHH”, the protein production result was “not failed”. For the sequence “MMQESGTETKSNGSAIQNGSGGSNHLLECGGLREGRSNGETPAVDIGAADLAHAQQQQQQWHLINHQPSRSPSSWLKRLISSPWELEVLQVPLWGAVAETKMSGPVCQPNPSPF”, the protein production entry is reported as “failed”. With “SLYDPAEKYFNCTDIQRAFFEAGIKLGAIFHQYTGIPVNSENASMAEEFIERSTMIQPFVENVRISINNVKRSSGTYSYSSLNEKMLHAEVLINYNGKKVLGVLNYDEGLDYPVMYAKEVL”, the protein production result is reported as “not failed”. With “MCARPCRPTNLPTRFSMSNSDPSPTLEGNYDLLFRFAFWLFVGAISFSVAGMLLLRLVPSSMAIFGPIYTKLVKTPTWTFMTLLALLPLLMYGPTLGWKKISLIAAWGCIIGGASELIGTTGWLNVGGIALPFGEYEYTQWLGPKIAGHVPYFIPPSWFAMSIVSLDLARRVTTQRVGSLLLGTLFMVLWDVSLDPAMNQAFPFWEYGVDGVFFGMPLSNWAGWAGVTFVILLGYEYIGKGAPIQNEWAPWVYALNCIFPLSICLLRDVYLPALIGGLATLVPFLLLWRYNPDSLKRSVSLFRG”, the protein production result is recorded as “failed”.

As for “MSFRAFLPAAMLVTVAGFWLGASTPGVAQYCEGTVHGLSGRYNLATGSGFLAVRTRPNSSSRMIGQLFNGDHVEIFDRRGNWYQVEIGGSTGWANARWLRNDCRY”, the protein production entry is “failed”. For the sequence “TGALMASSPQDIKFQDLVVFILEKKMGTTRRALLMELARRKGFRVENELSDSVTHIVAENNSGSDVLEWLQAQKVQVSSQPELLDVSWLIECIGAGKPVEMTGKHQL”, the protein production result is given as “not failed”. To “MSLEILTAGPMLTVQDAGRFGLRHMGVSPAGPIDRAAMALANALVGNDPGAAALEFAGPAGRFRCDRPVRFAVAGADCPLRIDARTVSPGESHRLNPGETLTVGVPEGAVWAYLAFSGAIASPEVLGSRATHLRSGVGGRALGAGDRLPLGEDDPEAPCLRPGLRLEAAAPFRETGPIRLILGPQDDHFAPEVIARLTGCDFTVTPQRDRMAMVLGGVELPAERGHDIVSDGTVPGSVQVPGSGTPLVLLAESQTTGGYPKIGTVASVDLARLAQMPVGARFRFALISAREGEDLWIARQAR” belongs “failed”; to “HRWITRPKFTHFDLHTLNWDLCLTQANHKSNLALEMLKMLLDSLPETVEKIQTALGQNDQATMLSTIHKLHGASCYCGVPTTQRLCQEIESALKRQTPVEDLEPEILELLDELTKVESAVKQVLSQLSAE”, “not failed”. To “MSQNLQPPIPLLVPETAPFSEEQRAWLNGFFAGLVSLDGQGVTALSPDQAAALLAGGPAPVAEDDDGGAPWHDQSLPIGERMQLAEGKPLRWKLMAAMAQQDCGQCGYDCRNYSGAIFDGQETRLNLCAPGGKDTARMVKTLTEQIGAAPTLDNAPSLAADAAPVVALPPRGTSRDNPATAKVLSRKRLNKPGSEKETWHVEFELEDCLSYEAGDSFGLFPTNDPALVDAVLHALGAPAEFPIAQSTLRQTLLDSVSLSPAPDMLFQLISYITGGDKRKKARSLASGEDPDGDAATLDVLAALEKFPGLRPDPEAFIEALDPLQPRLYSISSSPKTTPGRLSLTVDCVRYAIGKRQRLGVCSTGLAERVRPGETLRAYVQKAHHFALPSDPNQPIIMIGPGTGIAPFRAFLHERQAIQAPGKNWLFFGHQRSASDFFYEDELKAMKTAGHLTRLTLAWSRDSGEKIYVQDRIREVGRDLWSWLAEGASLYVCGDAKRMAKDVERALVDIVAQHGARSAAEATAFVSELKKQGRYQQDVY” belongs “failed”; to “STVKRKPVFVKVEQLKPGTTGHTLTVKVIEANIVVPVTRKTRPASSLSRPSQPSRIVECLIGDETGCILFTARNDQVDLMKPGATVILRNSRIDMFKGTMRLGVDKWGRIEATGAASFTVKEDNNLSLVEYE”, “not failed”; to “MQPELTKTPANFPLSPLGAVVILGDIPNPELLAIPLAPTPSTMFGPRGACLVAETGALWVSDTGHHRLLGWRKLPTTDSQPADWVIGQPDFYHEGQNAKGTPGRTTVSVPTGICVCGGGLAIADAWNHRVLIWHKIPEDSNVPADLVLGQRNFSENEPNRGKQSPDANTMHWPYGVAYHQGKLFVADTGNRRLLIWQQLPTENGQPADIVLGQPDMISRNENGGGSPTAGSMRWCHDIAFWDDNLVVTDAGNNRVMIWQGIPTENNAPCAVVLGQKSFDLVEMNQGVYFPSAGSLSMPYGVGATEDWLMVADTANSRLLGWRKRESILLLQGAIADGIIGQNSFQSKSENRHFGLPTRDSLNWCYGVKVCGSTAVISDSGNNRVLLWRFLLEHHHHHH”, “failed”. As to “MNNLIITTRQSPVRLLVDYVATTILWTLFALFIFLFAMDLLTGYYWQSEARSRLQFYFLLAVANAVVLIVWALYNKLRFQKQQHHAAYQYTPQEYAESLAIPDELYQQLQKSHRMSVHFTSQGQIKMVVSEKALVRA”, the protein production result was “failed”. As for “MSGPEAEQQSVVLYDIEDKPPLGKAIPLGIQHVLAMFLGNVAPPLILAGAVGSVTGETTFLVQMALIVAGIATIVQAYPVGPVGARLPVVMGTSFAFLGPLIGIGNQFGIAAVFGASLLAAPVEVIMGVSFDRFRRFFPPLVTGIVVMLIGLTLIPTGMNYAAGASAGPSAEGYGSFVNLGLAGLVLIVTVGLNQFFEGFLRVISVFVGIIVGYLAALALGVVDLSAVAAAGWVTVPVPLKYGLAFEPSAVVTVAFLYIITGMETIGDISGTVSATGRNATREEIRGGLVADGVMSVFGAVFNALPNTSFSQNVGLVNFTGVASRYVAGIGGVVLLALGFIPKVGAVVSAMPDAVLGGGALILFAMIFSSGARLITQNVELDHRNSTILAMSMALGLGVAFRPEILQNFPSEVQTLFGSALVTGGMAALILNIVFPGGSVGTGPTEYTAGLEPDPVETGAGAPPVDDD”, the protein production result is listed as “failed”. For the sequence “MNSYDETVQDIITAVGGKDNIEEVFHCVARLRFYLKDSTQLNKTILQKNSNIYDFKFENNQLQILIGSDVNKYYKALMKCINEDKDFSKAKKGNIKMSKSSDKDKQLAEQIVKLVGGKENVNSLIHCVTRLRFKLKDESKADDEAIKNLHGVMGVAHAGGQYQVIIGNNVTDIYDQVMPLLGLSSEQEVTQDDEKEGNIFSRLVALISSLFMPLLGVMTGAGMLKGLLVLFGVLGWVKQGTGTYMILNAAADALFYFLPILLGFTAGKTFKINPFVGAVTGGALVYPSMVAAATAHKAITFLGIPVNLMNYSQTMLPIVIAIWGMSWLEKGTKKIIPSSVRNLFVPLLDLMIVVPLAYIIIGPIMQTLSQWLSEASLWIYGILPVAAGFIIGGIWQGAVILGLHWAFIPVLMNNLMTNHFDPINGIMYCTLFGQVGACFAMGLKAKDKNFKEIAIPAAISGLVGITEPIIYGVTLPHKKAFAFASVGSAFGGAIAAACHAGMYTMPGGGIFGIPAFINPKGINMQFYGFLISLLVAIVVSFVLTMIFGDTVVPSAPKAKVQVKKAEFKDQAIYSPLEGTVVELKDVKDPVFSAGTIGKGIAVKPTNNEVRAPFDGKVISVFPTKHAIGLKSENGVELLIHLGIDTVNLQGKYFDSMVKDGQEIKKGDLIEKFDVQAIQEAGYDTVVPIVVTNSNNFDDVISEKKNGDKVNFGDQLLMATVEQDVNVQDSSIAKA”, the protein production entry is given as “failed”. To “MGNNFAQLKRLINFFRTVILPARISQLILQTFLKWQKDNCMDMGAALAYYALFSLFPICLVMLSIAGRLLGADSNYYLQLISFAQNILPEQPFKVFQQALTNLNQSSFSAGLIGFGILVLTASRIFDALNQSVKKIWSVVHQPKENIGVKHHAFNFIRNKILAFLLVLSTVMVFLLSIFANLAAKIFLTVLAEFGQSIPWVTFDSLGLITTLQTSISYFLITVVIITLFKVLPPVRLQWWDIFPGAILTAATMMALQNAVGSGIIRIGENLQAYGVVGNVMVLLLWIYLIFQVFFIGCEFTFVFTYIFGSRHQKEKPF” belongs “failed”.

Turning to “MAVDMFIKIGDVKGESKDKTHAEEIDVLAWSWGMSQSGSMHMGGGGGAGKVNVQDLSFTKYIDKSTPNLMMACSSGKHYPQAKLTIRKAGGENQVEYLIITLKEVLVSSVSTGGSGGEDRLTENVTLNFAQVQVDYQPQKADGAKDGGPVKYGWNIRQNVQA”, the protein production result is reported as “not failed”.
